Data reported in publication PMC7561103, “Notch dimerization and gene dosage are important for normal heart development, intestinal stem cell maintenance, and splenic marginal zone B-cell homeostasis during mite infestation” (PLoS Biology, 2020).
Numbering of substitutions follows the chain as printed. Numbers in names are those of the source. Each block holds one binder with its values, some of them ahead of it.

Tests used:
[1] = target: the molecule itself; test: native gel or EMSA; 1xSPS probe; band intensities fitted to a 2-site binding model with cooperativity factor C (Kd,2nd = Kd,1st/C); RBPj 2.5 to 640 nM, N1ICD and MAML at 2 uM; association of two NTCs on DNA
mouse RBPj (aa 53–474) = target: T1, mouse RBPj (aa 53–474) (mouse, UniProt P31266 53-474); test: native gel or EMSA; Notch transcription complexes assembled on fluorescent DNA probes with CSL sites (1.75 nM each probe); RBPj 2.5 to 640 nM in 4-fold steps, with or without N1ICD and MAML at 2 uM; native polyacrylamide gel; settings: both partners purified
T1 construct: RBPj (CSL), mouse, residues 53-474; also called CSL
T1 sequence (P31266 53-474): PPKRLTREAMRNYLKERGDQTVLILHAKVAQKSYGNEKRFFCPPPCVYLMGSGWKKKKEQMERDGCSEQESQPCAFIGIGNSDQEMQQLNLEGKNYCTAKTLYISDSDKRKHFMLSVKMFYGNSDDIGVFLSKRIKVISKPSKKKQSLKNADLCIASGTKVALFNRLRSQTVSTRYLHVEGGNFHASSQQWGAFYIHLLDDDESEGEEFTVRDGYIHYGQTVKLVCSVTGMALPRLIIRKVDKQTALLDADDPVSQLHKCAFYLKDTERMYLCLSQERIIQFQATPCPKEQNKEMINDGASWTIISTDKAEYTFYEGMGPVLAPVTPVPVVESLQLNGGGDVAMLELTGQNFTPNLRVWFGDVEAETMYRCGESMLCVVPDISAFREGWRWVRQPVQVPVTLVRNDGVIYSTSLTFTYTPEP

binding result (mouse RBPj (aa 53–474)): binds
B1: mouse N1ICD (aa 1744–2113) (domain or fragment, UniProt Q01705 1744-2113, looked up)
chain: VLLSRKRRRQHGQLWFPEGFKVSEASKKKRREPLGEDSVGLKPLKNASDGALMDDNQNEWGDEDLETKKFRFEEPVVLPDLSDQTDHRQWTQQHLDAADLRMSAMAPTPPQGEVDADCMDVNVRGPDGFTPLMIASCSGGGLETGNSEEEEDAPAVISDFIYQGASLHNQTDRTGETALHLAARYSRSDAAKRLLEASADANIQDNMGRTPLHAAVSADAQGVFQILLRNRATDLDARMHDGTTPLILAARLAVEGMLEDLINSHADVNAVDDLGKSALHWAAAVNNVDAAVVLLKNGANKDMQNNKEETPLFLAAREGSYETAKVLLDHFANRDITDHMDRLPRDIAQERMHHDIVRLLDEYNLVRSPQ
notes: Notch1 intracellular domain (RAM-ANK), mouse, residues 1744-2113; also called N1 RAM-ANK domain; WT N1ICD
fold stronger binding of the NTC to the second site than to the first site (cooperativity on 1xSPS) [1]: 5 fold

binding result (mouse RBPj (aa 53–474)): binds
B2: mouse N1^RAICD (aa 1744–2113) (domain or fragment, UniProt Q01705 1744-2113, looked up)
chain: B1 chain with R231A
notes: Notch1 intracellular domain (RAM-ANK), mouse, residues 1744-2113, with Arg1974 in the ANK domain changed to alanine; also called RA mutant; N1^R1974A

binding result (mouse RBPj (aa 53–474)): binds
B3: human SMT3-MAML1 (aa 1–280) (domain or fragment, UniProt Q92585 1-280, looked up)
chain: MVLPTCPMAEFALPRHSAVMERLRRRIELCRRHHSTCEARYEAVSPERLELERQHTFALHQRCIQAKAKRAGKHRQPPAATAPAPAAPAPRLDAADGPEHGRPATHLHDTVKRNLDSATSPQNGDQQNGYGDLFPGHKKTRREAPLGVAISSNGLPPASPLGQSDKPSGADALQSSGKHSLGLDSLNKKRLADSSLHLNGGSNPSESFPLSLNKELKQEPVEDLPCMITGTVGSISQSNLMPDLNLNEQEWKELIEELNRSVPDEDMKDLFNEDFEEKKD
notes: Mastermind-like 1 (MAML1), human, residues 1-280; also called MAML protein; Mastermind-like
